This data set can be described thus: soluble on expression in E. coli; label from the status in PepcDB or PDB records.
Turning to “GGKFVQAWSQFPAGKWGVEPNPVSVVPTHGEVLNDGKVKEVPWVLELTPMPVSGTTVGKDGINPDEPMTLETVDRFAREIGFKGRYQLNLPKGEDGVWTLSQDSMSYDMISPFADRTVHIDQYSGKILADIRFDDYNPFGKFMAASIALHMGTLG”, the “soluble on expression in E. coli” value is given as “not soluble”.
As for “MPRYYEDKPEGGACAGVKEDLGACLLQSACVLQEGKSPRQCLKEGNCRALQYSFFECKRSMLDARSRFRGRKGY”, the “soluble on expression in E. coli” value is “not soluble”.
For the sequence “MSLFTGYGNCYRLDALELAAEHGHTMQHWTFKTIEHFRSILANPEFPCLFGRKAVNGETCHILFARAEQLADDIAQGLANYVRTVAPIAPKQRIGSPLVVFLETAAGSSLAEQQALAWKVLRGVHARDPHPWPQGIPTDPDDTGWSFCYAGMPLFINMNFPGHQQMKSRNLGQHITFVINPRENFDEVANANTESGKRIRERIRERVHHYNDGVVPDTLGFFGDTDNYEWKQYQLQEAGSLNPSRCPFHAHAAHQPTPDILIENEGHHHHHH”, the “soluble on expression in E. coli” value is recorded as “not soluble”.
As for “MSLTIAHLTSSAFAVNKERNKFLMIHHNIYNSWAWTGGHSDNEKDQLKVAIKELKEETGVKNPTPLLDKAFALDVLTVNGHIKRGKYVSSHLHLNLTYLIECSEDETLMLKEDENSGVMWIPFNEISKYCSEPHMIPIYEKLINKLKTQSKEGHHHHHH”, the “soluble on expression in E. coli” value is “not soluble”.
In the case of “MLRIVLARSSRAMSSASPASASDSDTSVRKIGKALETYLKHSQQHVAMMEKHRAEFETGRRHLAKMMSLDIHELDQEAIDRAILYLFPSGLTDPNARPVMRPPDEILPKFQRFTFDEEGKPEGSRFFTLSPKIYGLLSDIGVKTHSVMKFYDEHVGSRSVNRSDLEPANLSGSQWVTADKLKKKLSEKFSKELYGQVIIAFEHLASLPGSAIEQKFLMEFREPMTASTGSKLFGPAIPEVHVCAVTNRRYAEVTTRCKDTRATVKVTDAGKGKFDIDGLQLHDFRHLQAREILLAPMIVSQSLGRFDVTATTSCISNTLPEAPNKAPLMRSGGMSALPRAVRHGTALCVAALQPEAIEPLRLSGLLTLDPRKNERSKVNQPGARAKWIWKRR” it was “not soluble”; in that of “MNDISAPEQYDLQTAALKVPPHSIEAEQAVLGGLMLDNNAWERVLDQVSDGDFYRHDHRLIFRAIAKLADQNSPIDVVTLAEQLDKEGQTSQVGGLGYLSELAKNTPSVANIKAYAQIVRARATLRQLIGISTEIADSAFNPEGRTAEEILDEAERQIFQIAEARPKTGGPVSVNDLLTKAIDRIDTLFNSDNAITGLSTGYTDLDEKTSGLQPADLIIVAGRPSMGKTTFAMNLVENAVLRSDKVVLVYSLEMPGESLIMRMLSSLGRIDQTKVRAGRLDDDDWPRLTSAVNLLNDRKLFIDDTAGISPSEMRARTRRIVREHGEIGMIMIDYLQLMQIPGSSGDNRTNEISEISRSLKALAKEFNCPVIALSQLNRSLEQRPNKRPINSDLRESGAIEQDADVIMFVYRDEVYHPETEHKGIAEIIIGKQRNGPIGTTRLAFIGKYTRFENLAPGSYNFDDD”, “not soluble”; in that of “MKNIFGNKNTKRSKNKDGKALASTASKDVADPPKQGGTKGSKKPKPSRGNDEKGREPETSAQSKKAKKGKPKRDSKAATPALSPGSREMLSDHKKQTVEDDPPLPIATSVAGTVTTTGMPALLPAENATQPLKEVVNSGKKSKGAPNSATATPVSHKSTITEGADKWVGEDVAKNWMDSIDLAEVKKEFEKLQSMKVDVEKECKTWKANSKYNQSEDFPALDSNLLKVEKDYVNISRVEIPLGRNIYIGQVPVKDTEETFWKAVFDKRIVSIDVIVGDEPIEFFPKKAEDYKNYGQMWINNRKVEYVSDDVFRFSIEVLPHGCSNSIICNVTVISNWKVDSVPVKQAIAIKEAFGLNSYLLKAPADDNAMINSQHGAGRAGYFLALAVAVHTIDTKVAEPCIVDIVKSIRSQRPRAVDSFCQYCSLYISLLYFIKKKVTKPAEGDKKSTPTNKYLHKKSVEMTKQFTNILLEANQPSVMGPQ”, “not soluble”.
Consider “ISRLLAGQLDFRSAIRSVAAEVAHIIPHDHLDVCVLLEDGNYHTAYETGIETAWGDLAGAPVVNSPIRSLLWGEVDFLLADDAMTDPRFHFDGAFKRPIVEQSLRSRLHVPMKVQGAIIAALSCSSQEAGAYTMEDVERARIIADLLTPYFFALRAAEQAQR”, for which the “soluble on expression in E. coli” value was “not soluble”.
With “MRVLVKLSGEALSGEGGRGFDPERVNYIVNEIKSAIEEGFKIGIVVGAGNLFRGVELKNLTMTRADQIGLLGTVMNSVYLKDIFERSGLKARIYSQIVNLPDVERVNYDSIESALRENSILIFAGGTSNPFFTTDTAAVLRAQEMRAKLVVKATKVDGVYDKDPKKFPDAKKIPHLTFSEAMKMGLKVMDAEAFALCKKLGITVKVINFFEPGTLLKALKGEDVGSTVVPD”, the “soluble on expression in E. coli” value is listed as “soluble”.
Consider “MPAHSFRIAAIPGDGIGLEVLPEGIRVLEAAALKHGLALEFDTFEWASCDYYLQHGKMMPDDWAEQLKQYDAIYFGAVGWPDKVPDHISLWGSLLKFRREFDQYVNIRPVRLFPGVPCALANRKVGDIDFVVVRENTEGEYSSLGGIMFENTENEIVIQESIFTRRGVDRILKYAFDLAEKRERKHVTSATKSNGMAISMPYWDKRTEAMAAHYPHVSWDKQHIDILCARFVLQPERFDVVVASNLFGDILSDLGPACAGTIGIAPSANLNPERNFPSLFEPVHGSAPDIFGKNIANPIAMIWSGALMLEFLGQGDERYQRAHDDMLNAIERVIADGSVTPDMGGTLSTQQVGAAISDTLARLD”, for which the “soluble on expression in E. coli” value is “soluble”.
Take “MGSDKIHHHHHHMAIIKASTAASVAELTTDIDQQLPQLKAKPFSHELLTTSILTMLGTAAFVGIHHRYRKQHLADARVQDYVRGIYSQMNALQSASHSRSMLRHFRYSCQQAASTWQQAYRLPMNDKQSNSSGLATNNFSAMHTTTMLARPVCWVSGVASMPKDISLINEDNENDFGVVGIDADREVVWQTTMPERVHDIVVQPVFRYEDNTVSNHLNHRQSRDVVVMGRRPSEKFWVLDTATGQVRFAINAATNRHFYGHACYSLDGSKLYVTENDTLSLDGKIGAYAVDKGYQKIAEFDSYGIGPHELIMHPDGETLIIANGGIKTEQASREELNLDTMHPSLVYLNRHDGSLLEQITPEHNQMSVRHLAMHDDGTVMIGIQFQGEKHINVPLVLTHKRGDIKLTPLTMPNNQWQRFHQYIASVAVDSKCNLLCVTTPIGGCAAIFDLTTRALINSVSLPDCAGASIYSRKTGSGKGSVDAEQKSGFIVSDGQGQLTRLSVNDLTILDSELNSDAIAKNNTIGTDIKCHMMSFDNHLQAL”: the “soluble on expression in E. coli” value was “not soluble”.
For the sequence “SEASFVQTTMALGLSSKKASSRNVAVERKNLITVCRFSVKTLLEKYTAEPIDDSSEEFVNFAAILEQILSHRFKACAPAGPVSWFSSDGQRGFWDYIRLACSKVPNNCVSSIENMENISTARAKGRAWIRVALMEKRMSEYITTALRDTRTTRRFYDSGAIMLRDEATILTGMLIGLSAIDFSFCLKGEVLDGKTPVVIDYTPYLKFTQSYDYLTDEEERHSAESSTSEDNSPEHPYLPLVTDEDSWYSKWHKMEQKFRIVYAQKGYLEELVRLRESQLKDLEAENRRLQLQLEEAAAQNQREKRELEGVILELQEQLTGLIPSDHAPLAQGSKELTTPLVNQWPSLGTLNGAEGASNSKLYRRHSFMSTEPLSAEASLSSDSQRLGEGTRDEEPWGPIGSSEPN”, the “soluble on expression in E. coli” value is reported as “soluble”.
Consider “KIWLFFIEQANNEIRIDLRSNGINVRDIAIKYGGGGHNNASGAIITNKKQISDVVSD”, for which the “soluble on expression in E. coli” value was “soluble”.
As for “MGSSHHHHHHSSGLVPRGSEVVIVSATRTPIGSFLGSLSLLPATKLGSIAIQGAIEKAGIPKEEVKEAYMGNVLQGGEGQAPTRQAVLGAGLPISTPCTTINKVCASGMKAIMMASQSLMCGHQDVMVAGGMESMSNVPYVMNRGSTPYGGVKLEDLIVKDGLTDVYNKIHMGSCAENTAKKLNIARNEQDAYAINSYTRSKAAWEAGKFGNEVIPVTVTVKGQPDVVVKEDEEYKRVDFSKVPKLKTVFQKENGTVTAANASTLNDGAAALVLMTADAAKRLNVTPLARIVAFADAAVEPIDFPIAPVYAASMVLKDVGLKKEDIAMWEVNEAFSLVVLANIKMLEIDPQKVNINGGAVSLGHPIGMSGARIVGHLTHALKQGEYGLASICNGGGGASAMLIQKL”, the entry is “soluble”.
As for “DRSVIYPSEYFFLKGGNAFWRFGDSMEAAFQTLPPYTATADKHLILQTSYRASRLLVNFLPFVFLKTNDEALHFKARWDMVSRKPYLEMGYSES”, the “soluble on expression in E. coli” value is listed as “not soluble”.
“MGSDKIHHHHHHMNRAREINYLNSIALHQPFGIVGVSGETGIGKTTVLNFVNPEGVFTVRVNISLRDSMESILYDLLHSLALSLEKVEEVSDLAKEVRKWITDEVSTIKGFSLGVSFGVNASLTHEKSIRPRFNFFKAREKLGELIKQTVQRKGKFLLIIDELDKEKKEDVLRVIDSIKNFIIMEDFVVILSLPFSIYREYAADRLRWNEAGNLENIFTDIVFVEPLKKLEIKELIIKRLGSYIELIEDGVLDIVADFSDGNPRDGLWILTKAIYDNIHKELLSKEDLINTINRTISEYTGLTLNLTENQKKAIRVLRGSVYSREKIIETLQKEGFKRTTAYSVMDQLLQKRILLVEKEGYRISGKFSYMEI”: the “soluble on expression in E. coli” value was “not soluble”.
In the case of “MSYQFTELKEELIIKKIVSLHYFEYMSDFTFPGESHNFWEFLYVDKGELQVTADREKFILRQGQIIFHRPNEFHALAANNVIAPNLVVISFEAGEPCMAFFEHKILTVGESERNLLSQIIAEARETFDGPMDDPYMEVLSRRESIPFGAEQMIKIHLEQFLIQLFRNFSGTLAFGENHKLNGAHAPGKSPALADGNELFSDILDYLDRNIGKSLTVEKICRDNLIGVSQLKKLFRTYQGSGVMECFNQMKINAAKQMIRNQQMNFTQIADALGYTSVHYFSRQFKKLTDMTPTEYRASIMLRAKRPQRKHL”, the “soluble on expression in E. coli” value was “not soluble”.
With “GVRNLAQGPRGCEHYDRACLLKAPCCDKLYTCRLCHDTNEDHQLDRFKVKEVQCINCEKLQHAQQTCEDCSTLFGEYYCSICHLFDKDKRQYHCESCGICRIGPKEDFFHCLKCNLCLTTNLRGKHKCIE”, the “soluble on expression in E. coli” value is reported as “soluble”.
Regarding “MYNNSAPYLNHSSLNTVRKKVVTVRRVLPSLPPPPPPPPSLYPPCSVFKVPYIPQRVYRSINSTLYNNQSFASSSRGFYRKQKPIPKSHPKHQEHHHHAKASVSTPVHSSSTSRNSSVAPTPQRTVSTSSSSSSAATSARVSEDESDSDSTPGEVQRRKTSVLSNDKRRRRASFSSTSIQSSPERQRDVSSSSRTSSSSSTSSMKQEETADEKSRKRKLIMSSDESSTTGSTATSVVSSRQSSLEPQQEKTDGEPPKKKSQTDFISERVSKIEGEERPLPEPVETSGPIIGDSSYLPYKIVHWEKAGIIEMNLPANSIRAHEYHPFTTEHCYFGIDDPRQPKIQIFDHSPCKSEPGSEPLKITPAPWGPIDNVAETGPLIYMDVVTAPKTVQKKQKPRKQVFEKDPYEYYEPPPTKRPAPPPRFKKTFKPRSEEEKKKIIGDCEDLPDLEDQWYLRAALNEMQSEVKSADELPWKKMLTFKEMLRSEDPLLRLNPIRSKKGLPDAFYEDEELDGVIPVAAGCSRARPYEKMTMKQKRSLVRRPDNESHPTAIFSERDETAIRHQHLASKDMRLLQRRLLTSLGDANNDFFKINQLKFRKKMIKFARSRIHGWGLYAMESIAPDEMIVEYIGQTIRSLVAEEREKAYERRGIGSSYLFRIDLHHVIDATKRGNFARFINHSCQPNCYAKVLTIEGEKRIVIYSRTIIKKGEEITYDYKFPIEDDKIDCLCGAKTCRGYLN”, the “soluble on expression in E. coli” value was “soluble”.

These data come from the DeepSol protein solubility set.
